The values below come from patent US20240018513A1, “SYNTHETIC INTRONS FOR TARGETED GENE EXPRESSION” (FRED HUTCHINSON CANCER CENTER, priority 2020, published 2024).

Series [1] deals with WT or SF3B1-mutant K562 cells. The series is described as follows: K562 xenografts (intravenous), GCV or PBS, bioluminescence and survival. The series is classed as in vivo, NOD-scid IL2Rgnull (NSG) mice. From the text: FIGS. 4A-4I: Synthetic introns enable mutation-dependent cancer cell targeting in vivo. (4A) Schematic of xenograft experiments with K562 cells expressing Luciferase and HSV-TK interrupted by synMTERFD3i1-150. K562 cells were intravenously injected into sub-lethally irradiated (250 cGy) NOD-scid IL2rgnull (NSG) mice (2M cells/mouse). n=10 (WT) and 9 (SF3B1-mutant) mice per cohort. (4B) Quantification of tumor burden, estimated by whole-body bioluminescent signal. Each point represents a single mouse. (4C) Representative bioluminescence images from cohorts described in (4A). (4D) Survival of mice from cohort described in (4A). p computed with logrank test. Comparisons not illustrated on plot are not significant (p+/+ GCV vs. PBS=0.534; pK700E/+PBS vs.+/+PBS=0.823). The cause of death for the one GCV-treated animal engrafted with an SF3B1-mutant leukemia which died by experiment endpoint was unclear, as this animal had minimal leukemic burden by imaging or necropsy. (4E) Survival curves of NSG mice engrafted with SF3B1 WT (top) or SF3B1 K700E (bottom) MOLM-13 cells expressing Luciferase and HSV-TK interrupted by synMTERFD3i1-150 followed by treatment with either PBS or GCV. pK700E/+ PBS vs. pK700E/+GCV=0.011. n=10 mice/group. (4F) Representative bioluminescence images from cohorts described in (4E). (4G) Tumor volumes of mice engrafted with SF3B1 WT or SF3B1 K700E T47D cells expressing HSV-TK interrupted by synMTERFD3i1-150 followed by treatment with either PBS or GCV. T47D cells were engrafted subcutaneously. Data represented as mean±s.d. n=8 mice/group. (4H) Tumor volumes of mice engrafted with SF3B1 WT MEL285 cells (left) or SF3B1 R625G MEL202 cells (right) expressing HSV-TK interrupted by synthetic intron 6700 (synMTERFD3i1-150 with A>C at −7 nt; A>C at −19 nt) followed by treatment with either PBS or GCV. All cells were engrafted subcutaneously. Data represented as mean±s.d. n=10 mice/group. (4I) Representative gross images of the tumors from (4H) at day 27 post-implantation.
Having identified the key features governing mutation responsiveness, the next step was to test whether synthetic introns permitted mutation-dependent cancer cell killing in vivo. A focus was made on synMTERFD3i1-150 for these experiments, as it served as the parent synthetic intron from which most of the full library was derived. Luciferase-GFP constructs were introduced into WT or SF3B1-mutant K562 cells expressing HSV-TK interrupted by synMTERFD3i1-150, tail vein injections of these cells were performed into NOD-scid IL2Rgnull (NSG) mice. The mice were treated with PBS or GCV and monitored for leukemia burdens with live imaging (FIG. 4A). […]

For series [2], the system named is MOLM-13 cells. The series is described as follows: MOLM-13 xenografts (intravenous), doxycycline-inducible SF3B1 WT or K700E, GCV or PBS. It is filed as in vivo, NSG mice. The note with it: GCV-treated arm engrafted with SF3B1K700E-expressing MOLM-13 cells. An excerpt:
FIGS. 4A-4I: Synthetic introns enable mutation-dependent cancer cell targeting in vivo. (4A) Schematic of xenograft experiments with K562 cells expressing Luciferase and HSV-TK interrupted by synMTERFD3i1-150. K562 cells were intravenously injected into sub-lethally irradiated (250 cGy) NOD-scid IL2rgnull (NSG) mice (2M cells/mouse). n=10 (WT) and 9 (SF3B1-mutant) mice per cohort. (4B) Quantification of tumor burden, estimated by whole-body bioluminescent signal. Each point represents a single mouse. (4C) Representative bioluminescence images from cohorts described in (4A). (4D) Survival of mice from cohort described in (4A). p computed with logrank test. Comparisons not illustrated on plot are not significant (p+/+ GCV vs. PBS=0.534; pK700E/+PBS vs.+/+PBS=0.823). The cause of death for the one GCV-treated animal engrafted with an SF3B1-mutant leukemia which died by experiment endpoint was unclear, as this animal had minimal leukemic burden by imaging or necropsy. (4E) Survival curves of NSG mice engrafted with SF3B1 WT (top) or SF3B1 K700E (bottom) MOLM-13 cells expressing Luciferase and HSV-TK interrupted by synMTERFD3i1-150 followed by treatment with either PBS or GCV. pK700E/+ PBS vs. pK700E/+GCV=0.011. n=10 mice/group. […]
Next, the potential efficacy of using synthetic introns was tested in other cancer models. […] Leukemia burden and survival were monitored. […]

B1: intron_26: 150 nt MTERFD3 intron 1-derived synthetic intron, deletion 25to125; SEQ ID NO 58/66 (nucleic acid)
DNA 1: GTGAGTCGCCCCCTTCCTCTGCTCCGAGAGGGAAATGGGAATTAGGGTGGTGGCAGAGCCCAAAGAGGCCTTGTAGGCCATGGTAAGGCATTTCTATGTTTTATTTTACTTTGTCTTTATCCTAAAATGCCATTGGCAAGTTTATTGCAG
DNA 2: GTGAGTCGCCCCCTTCCTCTGCTCCGAGAGGGAAATGGGAATTAGGGTGGTGGCAGAGCCCAAAGAGGCCTTGTAGGCCATGGTAAGGCATTTCTATGTTTTATTTTACTTTGTCTTTATCCTAAAATGCCATTGGCAAGTTTATTGCAG
For the molecule B1, the “survival, p (logrank test)” value came to 0.534 in series [1] (+/+ (WT) GCV vs. PBS) and 1.7e-4 in series [1] (GCV- vs. PBS-treated SF3B1-mutant leukemias). For the same molecule, the “leukemic burden (whole-body bioluminescent signal)” value in series [1] (GCV 80 mg/kg IP three times per week vs PBS) was “immediate and sustained suppression of SF3B1-mutant leukemic burden, with no effects on WT leukemias”. Moreover, in series [1] (GCV- vs PBS-treated SF3B1-mutant leukemias), the survival result is listed as “significantly increased survival”. The “survival and tumor burden” value in series [2] is “significantly prolonged survival and reduced tumor burden”.
